Measured values: patent US11385226

Biological target: recombinant Human IL-8 (BD Pharmingen cat #554609) (human) (UniProt P10145)
Assay: sandwich immunoassay on Capture Antibody 1 magnetic beads; potentiometric read-out of bound glucose oxidase conjugate after adding glucose; no potential without IL-8

Chain of Capture Antibody 2, an anti-Mouse α-Human IL-8 Monoclonal Antibody (for ICC, BD Pharmingen cat #550419), conjugated to Glucose Oxidase from Aspergillus niger (P13006 23-605): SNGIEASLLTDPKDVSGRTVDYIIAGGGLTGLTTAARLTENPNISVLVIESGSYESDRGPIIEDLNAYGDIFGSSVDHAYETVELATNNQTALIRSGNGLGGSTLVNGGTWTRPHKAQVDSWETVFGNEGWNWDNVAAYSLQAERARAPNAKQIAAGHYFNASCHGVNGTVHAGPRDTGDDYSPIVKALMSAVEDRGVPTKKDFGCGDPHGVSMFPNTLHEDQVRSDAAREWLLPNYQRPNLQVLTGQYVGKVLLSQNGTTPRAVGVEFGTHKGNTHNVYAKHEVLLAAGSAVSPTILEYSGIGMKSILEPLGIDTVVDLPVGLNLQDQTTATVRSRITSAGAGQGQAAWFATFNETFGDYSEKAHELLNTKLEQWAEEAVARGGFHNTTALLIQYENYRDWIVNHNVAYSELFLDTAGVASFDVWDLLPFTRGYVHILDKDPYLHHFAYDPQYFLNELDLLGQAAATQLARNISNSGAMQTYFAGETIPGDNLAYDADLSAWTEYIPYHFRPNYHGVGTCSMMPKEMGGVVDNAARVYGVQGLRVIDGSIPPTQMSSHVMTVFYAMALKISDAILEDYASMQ
Chain of recombinant Human IL-8 (BD Pharmingen cat #554609) (human) (P10145 28-99 limits assumed): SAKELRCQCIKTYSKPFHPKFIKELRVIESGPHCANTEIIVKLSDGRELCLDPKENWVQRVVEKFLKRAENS

Capture Antibody 2, an anti-Mouse α-Human IL-8 Monoclonal Antibody (for ICC, BD Pharmingen cat #550419), conjugated to Glucose Oxidase from Aspergillus niger (from UniProt P13006 23-605)
potential: 1 to 55 mV
